Legend:
MDA-MB-231 spheroids = test: Spheroid assay (3-D growth), MDA-MB-231; type: cell-based, human; conditions: humanised variants 5 μg/ml
Description: Similar findings were also reported for the Merck anti-N1 mAbs when tested on the LS-1034 cell line. As cell-cell contact is required to activate Notch signalling a spheroid-based 3-D growth model was used to test the ability of the J1 mAbs to block tumour growth. Furthermore, the 3-D model better mimics in vivo conditions including hypoxia and acidosis, allowing evaluation of the mAbs effect in a more realistic setting. Spheroids were generated from MDA-MB-231 breast cancer cells and the ability of different concentrations of the J1-65D mAb to inhibit their growth was evaluated.
Cells were harvested and resuspended in 2.5% Matrigel (BD)-complete DMEM medium. Cell suspension was plated on low-adherence 96-well plates (Corning) (200 μl/well) and spheroids, of approximately fixed cell number (5×10^3 cells for MDA-MB-231 and MDA-MB-468 cell lines; 2×10^3 for MCF7 cells) were then generated by spinning plates at 1800 rpm for 10 minutes. The following day, pictures of the spheroids were taken (day 1) and treatments were added (mAbs were used at 10 μg/ml [5 μg/ml for humanised antibodies] while DBZ was used at the concentration of 100 nM). In some experiments Paclitaxel (1 nM) and Doxorubicin (20 nM) were used in combination with J1-65D mAb treatment. Every 2 days pictures were taken and half of the medium was replaced with fresh one containing mAb/drug. At the end of the experiment, spheroids were either lysed for RNA extraction, were processed and paraffin-embedded for immunohistochemical analysis or were dissociated by pipetting and trypsinization into single cell suspensions for FACS analysis. Spheroid size was evaluated by image analysis using ImageJ software.

[1] = target: T1, N1 binding to cell surface expressed hJ1 (Homo sapiens, UniProt P78504); test: Notch binding blocking assay (FACS): N1 EGF11-13 beads staining human J1-expressing cells; parameters: key: +: Complete blocking; X: No blocking
T1 construct: cell expressed full length human J1 (hJ1; HEK293 transfectants); expressed in transfected cells; host or cells: HEK293
In short: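 E. coli-expressed, refolded human N1 EGF11-13 (411-526), biotinylated on avidin-coated fluorescent beads, stained human J1-transfected HEK293 cells with hybridoma supernatant or purified antibody diluted in HBSS/10% FCS. Purified mAbs titrated in dilution series; bead binding read by flow cytometry.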

[2] = test system: J1-induced Notch signalling; test: Luciferase assay, LS174T RBPJ reporter stimulated with J1 protein; type: cell-based, human; conditions: humanised/chimeric mAbs 10 μg/ml, NE3-Fc; DBZ control
Method: FIG. 9. […] (A) The colorectal cancer cell line LS174T expressing luciferase under the control of Notch co-factor RBPJ was stimulated with mammalian cell-expressed soluble J1 proteins (NE3-Fc and NE12-Fc) or a control protein in the presence of J1 mAbs (10 μg/ml), and luciferase activity was measured. […] (C) Breast cancer MDA-MB-231 cells were cultured with J1 mAbs. The expression level of the Notch target gene HES1 was measured by qPCR using β2m as the control gene. In all experiments the γ-secretase inhibitor DBZ was used as a positive control for pan Notch inhibition and a control mAb (IgG2b or IgG1) or no treatment (NT) were negative controls.
FIG. 20. Inhibition of human Jagged 1/Notch signalling by humanised and de-immunised J1-mAbs in vitro. The colorectal cancer cell line LS174T expressing luciferase under the control of Notch co-factor RbPJ was stimulated with mammalian cell-expressed recombinant J1 protein (NE3-Fc protein, right bar for each treatment) or a control protein (left bar) in the presence of J1 mAbs (10 μg/ml), and luciferase activity was measured. The parental murine monoclonal antibody (Mo), Murine IgG1, DMSO and DBZ were used as controls.
Having established that the J1 mAbs were able to block the binding of the J1 ligand to its receptor N1 their effect on the activity of the Notch signalling pathway was investigated. The human colorectal cancer cell line LS174T, stably expressing a luciferase reporter gene under control of Notch co-factor RBPJ, was stimulated with two forms of immobilised J1 protein: N-terminus to EGF3 and N-terminus to EGF12. […] Importantly, the best two J1 mAbs (J1-65D and J1-183D) were also tested against other Notch ligands in order to verify ligand specificity.
Prior to experiment, clear bottom 96-well plates (CELLSTAR) wells were coated with either J1-ECD fragments (NE3-Fc and NE12-Fc), other Notch-ligands (J2 or DLL4; both from R&D) or control protein (mlgG2b) at the concentration of 5 μg/ml in 0.1% BSA-PBS (overnight incubation at 4° C.). LS174T colorectal cancer cells, expressing the luciferase gene under control of the Notch cofactor RbPJ, were then plated (4×10^4 cells/well) in the presence of different mAbs (10 μg/ml) or DBZ (100 nM). Luciferase activity was then quantified 24 hours later using the Bright-Glo Luciferase Assay System (Promega).

[3] = Soluble aggregates of transiently expressed antibodies; type: physicochemical; conditions: Protein A purified antibody
Description: The protein yield of these antibodies, their levels of soluble aggregates and their binding affinity to the immunogen (J1-DE3) are illustrated in (Table 6).

[4] = final antibody concentration 0.2 μg/ml
[5] = final antibody concentration 0.4 μg/ml
[6] = final antibody concentration 0.6 μg/ml
[7] = final antibody concentration 1.0 μg/ml

T1 sequence (P78504 34-1218): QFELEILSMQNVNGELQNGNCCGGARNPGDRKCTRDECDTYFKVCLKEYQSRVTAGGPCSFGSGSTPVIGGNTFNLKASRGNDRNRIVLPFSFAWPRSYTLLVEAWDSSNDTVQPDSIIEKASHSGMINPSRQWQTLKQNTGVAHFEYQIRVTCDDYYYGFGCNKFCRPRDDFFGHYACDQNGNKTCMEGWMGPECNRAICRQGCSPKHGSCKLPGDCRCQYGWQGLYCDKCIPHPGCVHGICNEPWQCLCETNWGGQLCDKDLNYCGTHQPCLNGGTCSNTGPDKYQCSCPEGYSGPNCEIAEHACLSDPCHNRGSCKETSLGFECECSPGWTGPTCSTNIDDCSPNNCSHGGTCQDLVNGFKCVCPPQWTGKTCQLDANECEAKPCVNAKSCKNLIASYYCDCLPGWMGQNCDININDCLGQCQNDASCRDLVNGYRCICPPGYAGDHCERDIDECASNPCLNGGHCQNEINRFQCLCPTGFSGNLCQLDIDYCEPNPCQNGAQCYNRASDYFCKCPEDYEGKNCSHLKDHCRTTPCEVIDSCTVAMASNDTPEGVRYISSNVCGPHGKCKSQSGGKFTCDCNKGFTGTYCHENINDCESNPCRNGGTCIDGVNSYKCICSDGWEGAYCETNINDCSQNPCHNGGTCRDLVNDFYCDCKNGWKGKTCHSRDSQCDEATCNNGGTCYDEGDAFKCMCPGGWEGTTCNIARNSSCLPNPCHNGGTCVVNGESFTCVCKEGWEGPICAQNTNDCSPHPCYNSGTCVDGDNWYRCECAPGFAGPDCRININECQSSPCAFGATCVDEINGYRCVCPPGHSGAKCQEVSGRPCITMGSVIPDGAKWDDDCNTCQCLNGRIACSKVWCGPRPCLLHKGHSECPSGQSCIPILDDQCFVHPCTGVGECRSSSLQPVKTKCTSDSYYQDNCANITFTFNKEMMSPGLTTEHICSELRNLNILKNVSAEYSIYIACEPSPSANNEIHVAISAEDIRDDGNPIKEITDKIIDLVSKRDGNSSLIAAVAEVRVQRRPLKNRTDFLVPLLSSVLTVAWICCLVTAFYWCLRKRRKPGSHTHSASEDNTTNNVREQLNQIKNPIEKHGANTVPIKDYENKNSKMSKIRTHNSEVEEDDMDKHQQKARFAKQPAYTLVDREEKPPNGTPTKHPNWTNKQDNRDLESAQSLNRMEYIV

Row | Molecule | spheroid growth inhibition (MDA-MB-231 spheroids) | Blocking of Notch1 binding to cell surface Jagged 1 [1, 4] | Blocking of Notch1 binding to cell surface Jagged 1 [1, 5] | Blocking of Notch1 binding to cell surface Jagged 1 [1, 6] | Blocking of Notch1 binding to cell surface Jagged 1 [1, 7] | inhibition of J1-induced luciferase activity [2] | % soluble aggregate [3] [%]
1 | J1-65D variant 8: humanised/de-immunised J1-65D: J1-65D_VL_2 + J1-65D_VH_4 (antibody, V domains shown) VH: QVQLVQSGAEVKKPGSSVKVSCKASGYTFTDYEMHWVRQAPGQGLEWMGAIQPGGGGTAYAQKFQGRVTITADKSTSTAYMELSSLRSEDTAVYYCTRRGYDDYPFAYWGQGTLVTVSSASTKGP VL: DIQMTQSPSSLSASVGDRVTITCRASGNIHNYLAWYQQKPGKAPKLLIYNAKTLADAVPSRFSGSGSGTDYTLTISSLQPEDFATYYCQHFWSAPWTFGGGTKLEIKRT | slightly reduced ability to inhibit spheroid growth | X | + (Complete blocking) | + (Complete blocking) | + (Complete blocking) | inhibited as effectively as by the parental murine mAb | 0
2 | J1-65D variant 9: humanised/de-immunised J1-65D: J1-65D_VL_3 + J1-65D_VH_1 (antibody, V domains shown) VH: QVQLVQSGAELKKPGSSVKVSCKASGYTFTDYEMHWVRQAPGQGLEWMGAIQPGGGGTAYNQKFKGRVTLTADKSTSTAYMELSSLRSEDTAVYYCTRRGYDDYPFAYWGQGTLVTVSSASTKGP VL: DIQMTQSPSSLSASVGDRVTITCRASGNIHNYLAWYQQKPGKAPKLLIYNAKTLADAVPSRFSGSGSGTDYTLTISSLQPEDFATYYCQHFWSAPWTFGQGTKLEIKRT | most comparable to the parental mAb | X | + (Complete blocking) | + (Complete blocking) | + (Complete blocking) | inhibited as effectively as by the parental murine mAb | 0
3 | J1-65D variant 12: humanised/de-immunised J1-65D: J1-65D_VL_3 + J1-65D_VH_4 (antibody, V domains shown) VH: QVQLVQSGAEVKKPGSSVKVSCKASGYTFTDYEMHWVRQAPGQGLEWMGAIQPGGGGTAYAQKFQGRVTITADKSTSTAYMELSSLRSEDTAVYYCTRRGYDDYPFAYWGQGTLVTVSSASTKGP VL: DIQMTQSPSSLSASVGDRVTITCRASGNIHNYLAWYQQKPGKAPKLLIYNAKTLADAVPSRFSGSGSGTDYTLTISSLQPEDFATYYCQHFWSAPWTFGQGTKLEIKRT | slightly reduced ability to inhibit spheroid growth | X | + (Complete blocking) | + (Complete blocking) | + (Complete blocking) | inhibited as effectively as by the parental murine mAb | 0.47
4 | J1-183D variant 1: humanised/de-immunised J1-183D: J1-183D_VL_1 + J1-183D_VH_1 (antibody, V domains shown) VH: QVQLVQSGAELKKPGASVKVSCKVSGYAFTDYAIHWIRQAPGQGLEWMGIINTYYGDSKYNQKFKDRVTMTVDKSTSTAYMELSSLRSEDTAVYYCARGYDGFAYWGQGTLVTVSSASTKGP VL: DIQMTQSPSSLSASVGDRVTITCRTSENIYSYLTWYQQKPGKAPKLLVYNAKILAAGVPSRFSGSGSGTDFTLTISSLQPEDFATYYCQHHYDIPWTFGGGTKLEIKRT | most comparable efficacy to the original murine antibody | X | + (Complete blocking) | + (Complete blocking) | + (Complete blocking) | inhibited as effectively as by the parental murine mAb | 3.65
